Reference: patent US7309578B2, “Therapeutic treatment of chronic obstructive pulmonary disease” (The Trustees of Columbia University in the City of New York, priority 2000, dated 2007)

Key:
[1] = test system: small airway epithelial cells, lung microvascular endothelial cells, lung fibroblasts; assay: Transfection of lung cells with a sFrp1 expression vector, Annexin-V-Biotin assay; format: cell-based, human; details: for apoptosis-inducing activity on transfection: normal human primary lung epithelial, endothelial and fibroblast cells transfected with sFrp1-Gfp expression vector
From the text: (§1) Transfection of Lung Cells with a sFrp1 Expression Vector: The mouse sFrp1 full length cDNA was generously provided by Drs. Jeremy Nathans and Amir Rattner, John Hopkins University, Baltimore, and subcloned into a pCMS-EGFP vector (Clontech, Palo Alto, Calif.). A gene of sFrp1w&s inserted into the multiple cloning site at EcoRI and Sail sites between the cytomegalovirus early promoter and SV40 polyadenilation signals, which direct proper processing of the 3′ end of sFrp1 mRNA. The vector also has a Gfp (green fluorescent protein) gene located in downstream of the sFrp1-SV40 polyadenilation signals and ligated between the SV40 enhancer/promoter sequence and a polyadenylation signal from the bovine growth hormone gene. This vector construct allows transcriptions of sFrp1 and Gfp as separate proteins in transfected cells. Normal human primary cultured cells of small airway epithelial cells (SAEC 6043), lung microvascular endothelial cells (HMVEC L 6521-3), and lung fibroblasts (NHLF 5975) were obtained from BioWhittaker (Walkersville, Md.) and cultured in proper media containing 10% fetal bovine serum. Cells were plated 2 days before transfection in 4-well LabTek II chamber (Nalge Nunc International, Naperville, Ill.) at 2×10^4 cells/chamber and incubated at 37*C in 5% COj incubator. The sFrp1-Gjp expression vector or Gfp vector without sFrp gene (0.8 ujj) were transfected into cells using Lipofectaniine PLUS according to the manufacture's instruction (Gibco BRL). For Annexin-V-Biotin assay (Roche Diagnostics GmbH, Manheim, Germany), ceils were harvested at 72, 48, 24, 12 or 6 h after transfection and the reaction was detected by ExtraAvidin-Cy3 (Sigma). For caspase 3 activation assay, cells were fixed in 3% paraformaldehyde in PBS after 24 or 48 h of transfection and incubated with anti-human active caspase 3 antibody made by rabbit (x100, clone 9661. Cell Signaling Technology, Beverly, Mass.). Biotinylated goat IgG to rabbit IgG (Vector) and ExtraAvidin-Cy3 (Sigma) were used for detection of binding of a primary antibody.

[2] = test system: small airway epithelial cells, lung microvascular endothelial cells, lung fibroblasts; assay: Transfection of lung cells with a sFrp1 expression vector, caspase 3 activation assay (immunostaining); format: cell-based, human; details: 24 or 48 h after transfection
From the text: as §1, with “Cells were plated 2 days before transfection in 4-well LabTek II chamber (Nalge Nunc International, Naperville, Ill.) at 2×10^4 cells/chamber and incubated at 37*C in 5% COj incubator. The sFrp1-Gjp expression vector or Gfp vector without sFrp gene (0.8 ujj) were transfected into cells using Lipofectaniine PLUS according to the manufacture's instruction (Gibco BRL).” left out, “For caspase 3 activation assay, cells were fixed in 3% paraformaldehyde in PBS after 24 or 48 h of transfection and incubated with anti-human active caspase 3 antibody made by rabbit (x100, clone 9661. Cell Signaling Technology, Beverly, Mass.). Biotinylated goat IgG to rabbit IgG (Vector) and ExtraAvidin-Cy3 (Sigma) were used for detection of binding of a primary antibody.” left out

B1: sFrp1: mouse secreted frizzled-related protein 1, expressed from full length cDNA in a pCMS-EGFP vector transfected into cells (protein, UniProt Q8C4U3 1-314, looked up)
chain: MGVGRSARGRGGAASGVLLALAAALLAAGSASEYDYVSFQSDIGSYQSGRFYTKPPQCVDIPVDLRLCHNVGYKKMVLPNLLEHETMAEVKQQASSWVPLLNKNCHMGTQVFLCSLFAPVCLDRPIYPCRWLCEAVRDSCEPVMQFFGFYWPEMLKCDKFPEGDVCIAMTPPNTTEASKPQGTTVCPPCDNELKSEAIIEHLCASEFALRMKIKEVKKENGDKKIVPKKKKPLKLGPIKKKELKRLVLFLKNGADCPCHQLDNLSHNFLIMGRKVKSQYLLTAIHKWDKKNKEFKNFMKRMKNHECPTFQSVFK
modifications: full-length
notes: mouse secreted frizzled-related protein 1, expressed from full length cDNA in a pCMS-EGFP vector transfected into cells
phosphatidylserine exposure to the outer cell membrane (annexin V assay) ([1]; 6-72 h after transfection, data not shown): time- and dose-dependency of cell death to sFrp1 expression | apoptosis-inducing activity on transfection [1]: apoptosis-inducing activity of sFrp1 without preference of cell-type examined | apoptosis-inducing activity on transfection ([1]; listed as sFRP-1): leads to apoptosis in lung epithelial cells, endothelial cells and fibroblasts | active caspase 3 immunostaining [2]: presence of acive caspase 3 in and surrounding cells transfected sFrp1
